± gives the uncertainty stated by the source.
Assay: self-splicing fitness, log relative to wild type (ln ratio); higher = more splicing; Tetrahymena group I intron in knt gene, E. coli kanamycin selection, DiMSum; sequences stand for … in CUCUCU…GGAGGGAAAAGUUAUCAGGCAUGCACCUGGUAGCUAGUCUUUAAACCAAUAGAUUGCAUCGGUUUAAAAGGCAAGACCGUCAAAUUGCGGGAAAGGGGUCAACAGCCGUUCAGUACCAAGUCUCAGGGGAAACUUUGAGAUGGCCUUGCAAAGGGUAUGGUAAUAAGCUGACGGACAUGGUCCUAACCACGCAGCCAAGUCCUAAGUCAACAGAUCUUCUGUUGAUAUGGAUGCAGUUCACAGACUAAAUGUCGGUCGGGGAAGAUGUAUUCUUCUCAUAAGAUAUAGUCGGACCUCUCCUUAAUGGGAGCUAGCGGAUGAAGUGAUGCAACACUGGAGCCGCUGGGAACUAAUUUGUAUGCGAAAGUAUAUUGAUUAGUUUUGGAGUACUCGUGGUCG
How it was run: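 A randomised library covering all eight P1ex-region intron nucleotides was built with the intron in the knt kanamycin-resistance gene on pET-22b(+) and held in E. coli BL21(DE3). Cells were grown overnight at 37°C or 30°C on LB agar, with or without 25 μg/mL kanamycin, plus 100 μg/mL carbenicillin, 50 μM IPTG and 0.2% rhamnose, and pooled colonies were amplicon-sequenced on an Illumina HiSeq 2500. DiMSum fitness is the error-weighted combination of wild-type-normalised replicate fold changes, kanamycin versus none.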

Sequence | self-splicing fitness (ln) (30 °C) | self-splicing fitness (ln) (37 °C)
GCAUAGCAAUAUUACGUCAA | -2.89 ± 0.25 | -1.82 ± 0.18
UGCUAGCAAUAUUACGCGGG | -3.41 ± 0.28 | -2.38 ± 0.31
UUGCAGCAAUAUUACGGGGC | -3.99 ± 0.2 | -2.35 ± 0.2
UAUGAGCAAUAUUACGGUGG | -1.85 ± 0.22 | -2.72 ± 0.37
UCCCAGCAAUAUUACGUCCA | -1.51 ± 0.12 | -0.587 ± 0.12
UAAAAGCAAUAUUACGCGCC | -1.76 ± 0.2 | -0.751 ± 0.24
AAGUAGCAAUAUUACGUUAG | -3.51 ± 0.23 | -3 ± 0.34
AUCAAGCAAUAUUACGGUCG | -2.22 ± 0.12 | -2.03 ± 0.14
ACAGAGCAAUAUUACGGGGA | -4.66 ± 0.34 | -3.55 ± 0.25
AAGUAGCAAUAUUACGACCG | -1.89 ± 0.086 | -1.35 ± 0.12
AGCAAGCAAUAUUACGAAAU | -2.42 ± 0.098 | -1.51 ± 0.12
UGCCAGCAAUAUUACGACUA | -0.442 ± 0.1 | -0.0497 ± 0.1
AACCAGCAAUAUUACGUGAU | -1.66 ± 0.04 | -1.11 ± 0.05
GUCCAGCAAUAUUACGCACG | -2.07 ± 0.21 | -0.825 ± 0.13
UGUCAGCAAUAUUACGACUG | -0.284 ± 0.1 | 0.525 ± 0.13
AGAAAGCAAUAUUACGUCUU | -1.77 ± 0.09 | -0.678 ± 0.088
CCUCAGCAAUAUUACGUGCU | -3.84 ± 0.33 | -2.62 ± 0.39
AACAAGCAAUAUUACGUGUA | -1.55 ± 0.046 | -1.01 ± 0.054
CAUGAGCAAUAUUACGAUGU | -2.32 ± 0.19 | -2.72 ± 0.36
AGGGAGCAAUAUUACGGUAG | -4 ± 0.33 | –
CCUUAGCAAUAUUACGGACA | -2.53 ± 0.32 | –
UGGAAGCAAUAUUACGUGCA | -0.0243 ± 0.057 | -0.187 ± 0.067
UUAAAGCAAUAUUACGGAUG | -0.473 ± 0.074 | -0.418 ± 0.1
CUUCAGCAAUAUUACGAACG | -0.295 ± 0.062 | 0.406 ± 0.093
GAGAAGCAAUAUUACGAGGG | -3.49 ± 0.17 | -2.99 ± 0.19
GCCAAGCAAUAUUACGUUCG | -3.08 ± 0.17 | -1.22 ± 0.13

Sequence | self-splicing fitness (ln) (30 °C) | self-splicing fitness (ln) (37 °C)
UAUCAGCAAUAUUACGUAAC | -1.48 ± 0.14 | -0.246 ± 0.16
UUGAAGCAAUAUUACGCGCA | 0.548 ± 0.12 | 0.381 ± 0.12
GAACAGCAAUAUUACGGGGG | -2.08 ± 0.15 | -2.42 ± 0.2
CGUCAGCAAUAUUACGUGUG | -0.543 ± 0.059 | -0.104 ± 0.068
UUGCAGCAAUAUUACGUGAU | -3.85 ± 0.2 | -2.06 ± 0.17
CAAUAGCAAUAUUACGUAAU | -3.35 ± 0.21 | -1.92 ± 0.18
CCAUAGCAAUAUUACGGGAG | -2.96 ± 0.15 | -2.89 ± 0.25
UGGGAGCAAUAUUACGGAUU | -4.21 ± 0.31 | -3.06 ± 0.26
UCGGAGCAAUAUUACGAUCG | -1.22 ± 0.15 | -0.115 ± 0.15
UGAUAGCAAUAUUACGGUCG | -0.332 ± 0.098 | -0.477 ± 0.1
AAUAAGCAAUAUUACGGUUG | -2.86 ± 0.12 | -1.97 ± 0.14
AGAGAGCAAUAUUACGAGAG | – | -2.3 ± 0.44
GAUUAGCAAUAUUACGGCCC | -0.175 ± 0.083 | -0.352 ± 0.12
CAUUAGCAAUAUUACGGCAA | -2 ± 0.22 | -3.22 ± 0.47
CGCUAGCAAUAUUACGGGCC | -2.29 ± 0.17 | -1.92 ± 0.19
CAGUAGCAAUAUUACGCGCG | -0.327 ± 0.16 | 0.324 ± 0.18
AUUUAGCAAUAUUACGUUUU | -3.37 ± 0.24 | -2.25 ± 0.2
ACUUAGCAAUAUUACGCCUG | -1.12 ± 0.18 | -0.484 ± 0.19
GGGCAGCAAUAUUACGACCU | -1.88 ± 0.28 | -1.26 ± 0.44
AUAUAGCAAUAUUACGGUCC | -2.8 ± 0.25 | -1.44 ± 0.33
AGGCAGCAAUAUUACGUUGU | -2.88 ± 0.15 | -2.52 ± 0.21
GCGGAGCAAUAUUACGAUUA | -2.93 ± 0.22 | -1.73 ± 0.23
UUUAAGCAAUAUUACGACCA | -0.979 ± 0.27 | -0.376 ± 0.24
GGAUAGCAAUAUUACGGAUC | -0.869 ± 0.084 | -0.269 ± 0.11
AACCAGCAAUAUUACGUGUG | -1.05 ± 0.033 | -0.463 ± 0.048
GCACAGCAAUAUUACGAUCU | -0.54 ± 0.064 | 0.0668 ± 0.085

Sequence | self-splicing fitness (ln) (30 °C) | self-splicing fitness (ln) (37 °C)
CCUAAGCAAUAUUACGAAGU | -2.62 ± 0.13 | -1.21 ± 0.13
UCCGAGCAAUAUUACGGGUA | -1.06 ± 0.13 | -0.229 ± 0.096
UAUGAGCAAUAUUACGAAGA | -2.69 ± 0.44 | -1.81 ± 0.2
CGUAAGCAAUAUUACGCCGC | -1.76 ± 0.45 | -2.13 ± 0.42
ACCAAGCAAUAUUACGAGCA | -2.53 ± 0.12 | -0.958 ± 0.099
UGUCAGCAAUAUUACGCCAG | -1.31 ± 0.1 | -0.7 ± 0.12
CACAAGCAAUAUUACGAGGC | -3.54 ± 0.16 | -2.87 ± 0.19
CUGUAGCAAUAUUACGCUCA | -2.22 ± 0.22 | -1.95 ± 0.23
CCUGAGCAAUAUUACGUCGC | – | -2.54 ± 0.39
CAAGAGCAAUAUUACGGUGA | -3.01 ± 0.2 | -1.88 ± 0.21
AAAGAGCAAUAUUACGACAU | -1.897 ± 0.015 | -1.26 ± 0.034
GCGUAGCAAUAUUACGUUUA | -2.16 ± 0.15 | -2.13 ± 0.15
AACUAGCAAUAUUACGACCG | -0.914 ± 0.12 | 0.134 ± 0.15
CGCAAGCAAUAUUACGUAUC | -3.14 ± 0.13 | -2.33 ± 0.19
AGCGAGCAAUAUUACGAUUA | -2.78 ± 0.23 | -2.15 ± 0.23
UUAAAGCAAUAUUACGAUCA | 0.0315 ± 0.083 | 0.412 ± 0.097
AUCUAGCAAUAUUACGCCCU | -0.479 ± 0.19 | 0.46 ± 0.19
CGUCAGCAAUAUUACGGCUG | -1.51 ± 0.12 | -1.24 ± 0.23
UGCGAGCAAUAUUACGUAAC | -3.17 ± 0.18 | -3.09 ± 0.27
AUUCAGCAAUAUUACGCUUC | -2.28 ± 0.15 | -1.76 ± 0.18
UAGCAGCAAUAUUACGUAGC | -3.58 ± 0.44 | -2.78 ± 0.38
GUAGAGCAAUAUUACGACCC | 0.536 ± 0.15 | 0.745 ± 0.18
CGGAAGCAAUAUUACGUUUU | -3.64 ± 0.23 | -2.95 ± 0.18
GGUCAGCAAUAUUACGCUCA | -1.15 ± 0.12 | -0.0519 ± 0.17
UUGGAGCAAUAUUACGAACG | – | -0.295 ± 0.28

From the supplement of paper PMC7877785
